Measured values taken from paper PMC12482432.

How the values were obtained:
[1] = system: T1, EefR (Escherichia coli ATCC 35218 (35218m, acrB-deficient)), ORF:f1625a7f; test: competition; settings: EMSA in binding buffer (Beyotime kit, composition not given), 25 °C, 20 min; 6% native PAGE at 4 °C; salt and pH not stated
T1 sequence: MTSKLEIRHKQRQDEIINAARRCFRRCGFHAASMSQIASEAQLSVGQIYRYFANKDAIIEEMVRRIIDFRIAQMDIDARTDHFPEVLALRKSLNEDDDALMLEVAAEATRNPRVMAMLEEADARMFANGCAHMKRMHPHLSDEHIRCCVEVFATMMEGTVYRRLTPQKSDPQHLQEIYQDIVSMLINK

[2] = system: T1, EefR (Escherichia coli ATCC 35218 (35218m, acrB-deficient)), ORF:f1625a7f; test: EMSA; settings: EMSA in binding buffer (Beyotime kit, composition not given), 25 °C, 20 min; 6% native PAGE at 4 °C; salt and pH not stated

| Sequence | binding [1] | binding [2] |
| --- | --- | --- |
| ACAGAATTAACCAATAGCGGGGGATATTAATCCCCCTTATTTCATTGCGAAATTCATTTCGCGATGCGGGTTCGTTATAACTGAATATCCCTGACATATCCTCATTAATTTTAATGAGGAGGGTATTTCTCACCCTGGAGAAAATA (double strand) [nonspecific probe (148 bp)] | no binding | – |
| CACAATCTCTTCATTATCAGAATATGCACCATGAATAAGATAAAAATACTTTCCATTACTTTGGAGAAACGTATAATCAGCAAAAATGAGAACGATCATCCTCACCAAGTGATAGGCCAGGAGACAGAA (double strand) [M1 (one base mutated, MT-1)] | – | no binding |
| CACAATCTCTTCATTATCAGAATATGCACCATGAATAAGATAAAAATACTTTCCATTACTTTGGAGAAACGTATAATCAGCAAAAATGAGAACGATCATTCTCACCAAGTGATAGGCCAGGAGACAGAA (double strand) [P1 (129 bp eefR upstream probe)] | – | binds |
| CACAATCTCTTCATTATCAGAATATGCACCATGAATAAGATAAAAATACTTTCCATTACTTTGGAGAAACGTATAATCAGCAAAAATGAGAACGATCATTCTCACCAAGTGATAGGCCAGGAGACAGAA (double strand) [P1 cold probe] | binds | – |
